From article PMC7603069, “Crucial Role of the C-Terminal Domain of Hfq Protein in Genomic Instability”

How the values were obtained:
Hfq-CTR peptide [1] = target: T1, Hfq-CTR peptide (Escherichia coli, UniProt P0A6X3); assay: EMSA?; method not stated for dG7; EMSA: quadruplex prepared in water (95 C 5 min, slow cooling), 20 min at room temperature; native 4-20% polyacrylamide gel in TAE pH 8.0 (40 mM Tris-acetate, 1); conditions: parallel G-quadruplex
T1 chain: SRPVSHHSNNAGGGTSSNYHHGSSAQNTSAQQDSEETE

Hfq-CTR peptide [2] = target: T1, Hfq-CTR peptide; assay: EMSA; quadruplex annealed in water without salt; EMSA: quadruplex prepared in water (95 C 5 min, slow cooling), 20 min at room temperature; native 4-20% polyacrylamide gel in TAE pH 8.0 (40 mM Tris-acetate, 1); conditions: parallel G-quadruplex

B1: dG7 (structured_DNA)
DNA: GGGGGGG
Kd (Hfq-CTR peptide [1]): 981 ± 96 nM

B2: d(G3T)4 (structured_DNA)
DNA: GGGTGGGTGGGTGGGT
Kd (Hfq-CTR peptide [2]): 1060 ± 74 nM
